Measurements from article PMC9324360.

Columns and labels:
Experiment in all cases: MST
Settings in all cases: 0.5 mM Mg2+; MST: 10 mM Tris-HCl pH 8.5, 0.5 mM MgSO4, 50 mM KCl, 10 mM (NH4)2SO4, 0.05% Tween 20; 1 nM oligo; 10 min at 55 °C, measured at 25 °C
[1] = system: Tt72 DNA polymerase WT (Thermus thermophilus MAT72 phage vB_Tt72)
[2] = system: Tt72 pol D15A (Thermus thermophilus MAT72 phage vB_Tt72)
[3] = system: Tt72 pol D184A (Thermus thermophilus MAT72 phage vB_Tt72)
[4] = system: Tt72 pol D78A (exo-) (Thermus thermophilus MAT72 phage vB_Tt72)
[5] = system: Tt72 pol D78A/D384A (Thermus thermophilus MAT72 phage vB_Tt72)
[6] = system: Tt72 pol D78A/D615A (Thermus thermophilus MAT72 phage vB_Tt72)
[7] = system: Tt72 pol D78A/E389A (Thermus thermophilus MAT72 phage vB_Tt72)
[8] = system: Tt72 pol D78A/S616A (Thermus thermophilus MAT72 phage vB_Tt72)
[9] = system: Tt72 pol E17A (Thermus thermophilus MAT72 phage vB_Tt72)
[10] = system: Tt72 pol L27A (Thermus thermophilus MAT72 phage vB_Tt72)
[11] = system: Tt72 pol Y180A (Thermus thermophilus MAT72 phage vB_Tt72)

“TGGCTGCTTCTAAGCCAACATCCT / CTAGTGAGGATGTTGGCTTAGAAGCAGCCA [polTt72-Cy5/polTt72-long primer/template]” showed a Kd [1] of 2 nM, a Kd [2] of 232 nM and a Kd [3] of 144 nM. For the same sequence, the Kd [4] was 109 nM, the Kd [5] was 100 nM and the Kd [6] was 78 nM. It also gave a Kd [7] of 68 nM, a Kd [8] of 129 nM and a Kd [9] of 529 nM. The Kd [10] was 32 nM and the Kd [11] was 229 nM.
